Two molecules from paper doi:10.1101/2022.05.17.492379 can be followed below.

The target of one data set is T1, Esrrb (Mus musculus, UniProt Q61539 1-433).
T1 sequence: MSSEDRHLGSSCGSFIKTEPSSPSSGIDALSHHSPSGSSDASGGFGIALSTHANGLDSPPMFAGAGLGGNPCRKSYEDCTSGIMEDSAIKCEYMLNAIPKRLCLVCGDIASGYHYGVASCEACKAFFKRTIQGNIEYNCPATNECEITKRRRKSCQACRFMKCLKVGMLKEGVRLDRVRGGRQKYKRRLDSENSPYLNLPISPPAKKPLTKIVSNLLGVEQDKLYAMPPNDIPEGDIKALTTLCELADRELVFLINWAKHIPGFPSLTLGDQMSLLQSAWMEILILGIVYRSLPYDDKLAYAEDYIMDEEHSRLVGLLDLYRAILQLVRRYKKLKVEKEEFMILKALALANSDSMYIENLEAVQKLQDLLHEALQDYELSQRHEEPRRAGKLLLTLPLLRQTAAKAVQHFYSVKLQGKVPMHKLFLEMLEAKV
The data set can be described thus: fluorescence polarization.

In the next data set the target is Nr5a2 (Mus musculus, UniProt P45448 1-560). The data set can be described thus: fluorescence polarization.
Nr5a2, sequence (P45448 whole entry): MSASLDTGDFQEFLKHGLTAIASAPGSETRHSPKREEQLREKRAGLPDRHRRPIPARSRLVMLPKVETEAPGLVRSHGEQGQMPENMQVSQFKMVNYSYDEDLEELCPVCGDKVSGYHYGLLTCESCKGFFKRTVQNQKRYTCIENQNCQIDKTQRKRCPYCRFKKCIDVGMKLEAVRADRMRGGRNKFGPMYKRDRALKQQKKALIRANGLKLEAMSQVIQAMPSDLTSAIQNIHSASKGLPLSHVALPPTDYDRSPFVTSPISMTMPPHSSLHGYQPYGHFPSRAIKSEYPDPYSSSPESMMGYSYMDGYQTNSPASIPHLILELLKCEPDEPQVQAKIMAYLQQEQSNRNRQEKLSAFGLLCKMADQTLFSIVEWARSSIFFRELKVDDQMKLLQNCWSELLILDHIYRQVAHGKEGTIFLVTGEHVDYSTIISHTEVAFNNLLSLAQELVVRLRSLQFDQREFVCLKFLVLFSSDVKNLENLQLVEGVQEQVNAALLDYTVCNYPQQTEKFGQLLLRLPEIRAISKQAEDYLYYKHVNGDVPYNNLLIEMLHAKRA

B1: Nr5a2 motif DNA (dsDNA)
DNA 1: GAGAGAGTCAAGGCCATGGCTCACT
DNA 2: AGTGAGCCATGGCCTTGACTCTCTC
Consider B1, for which the Kd is 626 ± 133 nM with Esrrb and 5.62 ± 1 nM with Nr5a2.

B2: Esrrb motif DNA (dsDNA)
DNA 1: GAGAGAGTCAAGGTCATGGCTCACT
DNA 2: AGTGAGCCATGACCTTGACTCTCTC
B2: the dissociation constant (Kd) worked out at 8.56 ± 0.69 nM with Esrrb and 6.49 ± 0.35 nM with Nr5a2.
